# According to patent US20250049970A1, “DLL3 TARGETING PEPTIDES AND CONSTRUCTS THEREOF” (MARIANA ONCOLOGY INC., priority 2023, published 2025):
# Values joined by “and” are separate entries in the source; they are usually repeats but may differ in a detail not shown here. Equal values may be shown once. *1 amine or outer side, *2 acyl side, *3 side chain or, on linkers, in order; H or OH if unused. Where a SMILES comes first, the peptide text is derived from it. Bridges are numbered along the chain shown (N, C = ends). [ ]: non-standard residue; d: D form. The star is where a group is joined. Ala(piperidin-4-yl) = O=C([C@H](CC1CCN([*:3])CC1)N[*:1])[*:2]; DOTA = O=C(O)CN1CCN(CC(=O)O)CCN(CC(=O)*)CCN(CC(=O)O)CC1; 2Nal = N[C@@H](Cc1ccc2ccccc2c1)C(=O)O; NMetBuAla = CN[C@@H](CC(C)(C)C)C(=O)O; Ile(3-Me) = CCC(C)(C)[C@H](N)C(=O)O; aIle = CC[C@@H](C)[C@H](N)C(=O)O; tBuAla = CC(C)(C)C[C@H](N)C(=O)O; Chg = N[C@H](C(=O)O)C1CCCCC1; αMeP = C[C@@]1(C(=O)O)CCCN1
# T1: DLL3 (Homo sapiens, UniProt Q9NYJ7)
# T1 sequence (Q9NYJ7 27-618): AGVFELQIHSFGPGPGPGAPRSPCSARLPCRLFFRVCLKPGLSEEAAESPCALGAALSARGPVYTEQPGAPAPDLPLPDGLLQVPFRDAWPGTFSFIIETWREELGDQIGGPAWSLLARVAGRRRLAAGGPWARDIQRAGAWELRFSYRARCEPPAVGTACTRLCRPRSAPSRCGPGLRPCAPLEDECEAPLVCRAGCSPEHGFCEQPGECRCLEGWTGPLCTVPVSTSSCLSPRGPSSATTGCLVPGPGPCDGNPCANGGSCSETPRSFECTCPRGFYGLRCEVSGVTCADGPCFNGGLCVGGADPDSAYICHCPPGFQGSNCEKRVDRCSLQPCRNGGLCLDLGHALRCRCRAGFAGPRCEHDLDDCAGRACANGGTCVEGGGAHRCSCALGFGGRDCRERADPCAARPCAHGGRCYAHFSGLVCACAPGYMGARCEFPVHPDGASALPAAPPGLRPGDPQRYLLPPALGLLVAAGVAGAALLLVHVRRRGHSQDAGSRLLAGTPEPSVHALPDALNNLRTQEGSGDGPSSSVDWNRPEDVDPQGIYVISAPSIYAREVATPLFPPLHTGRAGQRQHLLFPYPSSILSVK
# T2: DLL3 on SHP-77 cells (human, UniProt Q9NYJ7 27-618)
# T2 construct: SHP-77 cells are human-derived, non-engineered SCLC cells
# T2 sequence: T1 sequence (Q9NYJ7 27-618)
# T3: Biotinylated target ligand human DLL3 (human, UniProt Q9NYJ7 27-492, limits assumed, biotinylated (site not stated))
# T3 sequence: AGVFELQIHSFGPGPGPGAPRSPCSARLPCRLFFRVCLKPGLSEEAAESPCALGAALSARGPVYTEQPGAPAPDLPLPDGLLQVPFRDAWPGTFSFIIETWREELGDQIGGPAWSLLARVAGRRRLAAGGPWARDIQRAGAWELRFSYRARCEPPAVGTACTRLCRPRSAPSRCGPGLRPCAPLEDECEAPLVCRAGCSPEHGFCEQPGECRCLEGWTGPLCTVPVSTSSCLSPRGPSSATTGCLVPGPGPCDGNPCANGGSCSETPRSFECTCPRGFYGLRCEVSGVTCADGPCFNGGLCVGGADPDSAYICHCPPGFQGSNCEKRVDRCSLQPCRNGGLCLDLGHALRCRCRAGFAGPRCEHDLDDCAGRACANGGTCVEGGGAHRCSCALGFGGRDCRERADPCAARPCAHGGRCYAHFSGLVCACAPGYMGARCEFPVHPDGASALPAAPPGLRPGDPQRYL
# Tests used:
# DLL3 = target: T1, DLL3; assay: SPR binding affinity of cyclic peptides (SEQ ID NOs), SA sensor chip, Biacore S200; details: 25° C., 1:1 binding model
# Procedure: The binding affinity and binding kinetic parameters at 25° C. were determined using Biacore S200 instrument. Target ligand was immobilized on a SA sensor chip via streptavidin capture. A reference surface was set up for nonspecific binding and refractive index changes. For analysis of the kinetics of interactions, varying concentrations of peptides were injected at a flow rate of 50 μL/minute using running buffer containing 20 mM phosphate buffer with 2.7 mM KCl, 137 mM NaCl and 0.05% Surfactant P20. Sensorgram curves were fitted with 1:1 binding model, and affinity and kinetic parameters were obtained using either Biacore S200 evaluation software 1.1.1 or Biacore Insight evaluation 4.0.
# DLL3 on SHP-77 cells [1] = target: T2, DLL3 on SHP-77 cells; assay: [177Lu]Lu-labelled peptide on SHP-77 cells, 1 h 37 C, gamma counter; C = %>50
# [2] = target: Recombinant human DLL3 aa27-215 protein (human) (UniProt Q9NYJ7); assay: ELISA: anti-DOTA antibody coated on the plate captures the DOTA-containing peptide (titrated 100 nM to 1.69 pM); 2 ug/mL DLL3 aa27-215 (His-tagged) added; detected with anti-His-HRP, OD450; EC50 fitted in GraphPad
# [3] = target: DLL3 on CT26.DLL3 cells (Homo sapiens (Human)) (UniProt Q9NYJ7); assay: [177Lu]Lu-labelled peptide on CT26.DLL3 cells, 1 h 37 C, gamma counter; A = %<=25
# DLL3 on SHP-77 cells [4] = target: T2, DLL3 on SHP-77 cells; assay: [177Lu]Lu-labelled peptide on SHP-77 cells, 1 h 37 C, gamma counter; B = 25<%<=50
# [5] = target: T3, Biotinylated target ligand human DLL3; assay: SPR, biotinylated human DLL3 on streptavidin chip; A = KD<=1.0 nM
# Procedure: (§1) Biotinylated target ligand human DLL3 was immobilized on a streptavidin sensor chip. A reference surface was set up for nonspecific binding and refractive index changes. For analysis of the kinetics of interactions, varying concentrations of samples were injected at a flow rate of 100 μL/minute using running buffer containing 20 mM phosphate buffer with 2.7 mM KCl, 137 mM NaCl, 0.05% Surfactant P20 and 2% DMSO. Sensorgram curves were fitted with 1:1 binding model, and affinity and kinetic parameters were obtained using Biacore Insight evaluation 4.0. software.
# [6] = target: T3, Biotinylated target ligand human DLL3; assay: SPR, biotinylated human DLL3 on streptavidin chip; B = 1.0 nM<KD<=10 nM; lower limit of grade B
# Procedure: as §1
# [7] = target: T3, Biotinylated target ligand human DLL3; assay: SPR, biotinylated human DLL3 on streptavidin chip; B = 1.0 nM<KD<=10 nM; upper limit of grade B
# Procedure: as §1
# [8] = target: DLL3 on CT26.DLL3 cells (Homo sapiens (Human)) (UniProt Q9NYJ7); assay: [177Lu]Lu-labelled peptide on CT26.DLL3 cells, 1 h 37 C, gamma counter; B = 25<%<=50
Molecule,Kd (DLL3) [nM],% Binding [3] [%],% Binding (DLL3 on SHP-77 cells [4]),further results
Ac-WT[NMetBuAla]C[Ala(piperidin-4-yl)]N[2Nal]K(DOTA)DCW[αMeP]-NH2 (bridge 4-10; not fully specified (bridges)) [Cpd No. 236],–,–,–,% Binding (DLL3 on SHP-77 cells [1]): > 50%; EC50 [2]: 0.341 nM
Ac-WT[Ile(3-Me)]C[Ala(piperidin-4-yl)]N[2Nal]K(DOTA)DCWP-NH2 (disulfide 4-10) [Cpd No. 302],–,< 25,> 25% and < 50%,–
Ac-WT[aIle]C[Ala(piperidin-4-yl)]N[2Nal]K(DOTA)DCWP-NH2 (disulfide 4-10) [Cpd No. 303],–,< 25,> 25% and < 50%,Kd [5]: < 1 nM
Ac-MWTICNNWHDCWP-NH2 (disulfide 5-11) [Cpd No. 1],–,–,–,Kd [6]: > 1 nM; Kd [7]: ≤ 10 nM
Ac-WT[tBuAla]C[Ala(piperidin-4-yl)]N[2Nal]K(DOTA)DCWP-NH2 (bridge 4-10; not fully specified (bridges)) [Cpd No. 94],–,–,–,% Binding [8]: > 25% and < 50%; EC50 [2]: 2.19 nM

# Now from value to molecule, other results behind:
Kd (DLL3) [nM],% Binding [3] [%],% Binding (DLL3 on SHP-77 cells [4]),Molecule,further results
150,–,–,CSCC[C@H](NC(C)=O)C(=O)N[C@@H](Cc1c[nH]c2ccccc12)C(=O)N[C@@H](CCSC)C(=O)N[C@@H](CC(C)C)C(=O)N[C@H]1CSSC[C@@H](C(=O)N[C@@H](Cc2c[nH]c3ccccc23)C(=O)N2CCC[C@H]2C(N)=O)NC(=O)[C@H](CC(=O)O)NC(=O)[C@H](CCCCN)NC(=O)[C@H](CC(=O)O)NC(=O)[C@H](Cc2c[nH]c3ccccc23)NC(=O)[C@H](CC(=O)O)NC1=O [compound 77] (Ac-MWMLCDWDKDCWP-NH2; disulfide 5-11),–
47,–,–,CC[C@H](C)[C@H](NC(=O)[C@@H](NC(=O)[C@H](Cc1c[nH]c2ccccc12)NC(=O)[C@H](CCSC)NC(C)=O)[C@@H](C)O)C(=O)N[C@H]1CSSC[C@@H](C(=O)N[C@@H](Cc2c[nH]c3ccccc23)C(=O)N2CCC[C@H]2C(N)=O)NC(=O)[C@H](CC(=O)O)NC(=O)[C@H](Cc2cnc[nH]2)NC(=O)[C@H](Cc2c[nH]c3ccccc23)NC(=O)[C@H](CC(N)=O)NC(=O)[C@@H](C)NC1=O [compound 82] (Ac-MWTIC[dA]NWHDCWP-NH2; disulfide 5-11),–
150,–,–,CC[C@H](C)[C@H](NC(=O)[C@@H](NC(=O)[C@H](Cc1c[nH]c2ccccc12)NC(=O)[C@H](CCSC)NC(C)=O)[C@@H](C)O)C(=O)N[C@H]1CSSC[C@@H](C(=O)N[C@@H](Cc2c[nH]c3ccccc23)C(=O)N[C@H](C)C(N)=O)NC(=O)[C@H](CC(=O)O)NC(=O)[C@H](Cc2cnc[nH]2)NC(=O)[C@H](Cc2c[nH]c3ccccc23)NC(=O)[C@H](CC(N)=O)NC(=O)[C@H](CC(N)=O)NC1=O [compound 85] (Ac-MWTICNNWHDCW[dA]-NH2; disulfide 5-11),–
–,< 25,> 25% and < 50%,Ac-WT[Chg]C[Ala(piperidin-4-yl)]N[2Nal]K(DOTA)DCWP-NH2 (disulfide 4-10) [Cpd No. 324],–
